These results are taken from the Human Domainome abundance scans (Beltran et al. 2025).

Sequences and labels used below:
B1: PDZ and LIM domain protein 2, residues 284 to 339; numbered along this chain, Q96JY6 (parent)
chain: HTCEKCSTSIANQAVRIQEGRYRHPGCYTCADCGLNLKMRGHFWVGDELYCEKHAR

± gives the uncertainty stated by the source.

This series covers variants of B1. The experiment in a line: abundance fitness (aPCA) (normalised: wild type 0, dead -1); higher = more abundant; growth selection in yeast, the domain comes from the species named. The settings on record: Homo sapiens.
On to N12E, for which the abundance fitness worked out at 0.498 ± 0.091.

Consider N12K, for which the abundance fitness was -0.295 ± 0.073.

Consider G20R, for which the abundance fitness is -0.136 ± 0.063.

Consider G20T, for which the abundance fitness was -0.129 ± 0.069.

Consider G20S, for which the abundance fitness was -0.29 ± 0.087.

In the case of G20K, the abundance fitness is -0.023 ± 0.17.

Take M39H: the abundance fitness is -0.116 ± 0.18.

Consider M39W, for which the abundance fitness was -0.523 ± 0.068.

In the case of I17P, the abundance fitness is -0.336 ± 0.062.

As for I17W, the abundance fitness was -0.533 ± 0.13.

For the variant I17C, the abundance fitness was -0.453 ± 0.098.

C30Y: the abundance fitness is -0.956 ± 0.12.

C30H: the abundance fitness was -0.669 ± 0.47.

As to C30G, the abundance fitness was -0.618 ± 0.12.

For the variant H54L, the abundance fitness is -0.653 ± 0.091.

For H54W, the abundance fitness is -0.856 ± 0.081.

H54R: the abundance fitness was -0.655 ± 0.087.

For the variant H54A, the abundance fitness is -0.865 ± 0.29.

For S7W, the abundance fitness was -0.641 ± 0.1.

Consider H1A, for which the abundance fitness is -0.24 ± 0.27.

Regarding E48R, the abundance fitness was -0.079 ± 0.08.

E48K: the abundance fitness was -0.034 ± 0.12.

For the variant E48L, the abundance fitness is -0.082 ± 0.09.

Turning to E48Q, the abundance fitness was -0.292 ± 0.14.

For the variant H24E, the abundance fitness is -0.439 ± 0.14.

On to H24M, for which the abundance fitness is -0.492 ± 0.09.

As for H24I, the abundance fitness is -0.973 ± 0.36.

As for H24C, the abundance fitness was 0.309 ± 0.063.

As for H24Q, the abundance fitness was -0.186 ± 0.2.

Consider H24D, for which the abundance fitness was -0.047 ± 0.08.

As for D47N, the abundance fitness was -0.11 ± 0.14.

Regarding D47I, the abundance fitness is -0.135 ± 0.081.

On to V45D, for which the abundance fitness is -0.434 ± 0.12.

For the variant V45M, the abundance fitness is -0.057 ± 0.07.

As for V45A, the abundance fitness was determined as 0.022 ± 0.087.

Consider V45C, for which the abundance fitness is -0.242 ± 0.16.

On to V45I, for which the abundance fitness worked out at 0.29 ± 0.12.

In the case of V45T, the abundance fitness is -0.585 ± 0.12.

For the variant Y28P, the abundance fitness was -0.752 ± 0.21.

Consider Y28N, for which the abundance fitness is -0.294 ± 0.12.

On to Y28D, for which the abundance fitness was -0.772 ± 0.23.

Consider Y28S, for which the abundance fitness is -0.179 ± 0.068.

Turning to Y28K, the abundance fitness is -0.434 ± 0.14.

Regarding C6M, the abundance fitness was -0.523 ± 0.13.

Turning to C6P, the abundance fitness is -0.336 ± 0.2.

C6W: the abundance fitness is -0.872 ± 0.12.

On to C6I, for which the abundance fitness was -0.135 ± 0.32.

In the case of K38L, the abundance fitness was -0.702 ± 0.1.

Regarding K38S, the abundance fitness came out at 0.056 ± 0.076.

K38W: the abundance fitness was -0.445 ± 0.13.

Take F43N: the abundance fitness worked out at 0.071 ± 0.19.

In the case of F43Q, the abundance fitness is -0.26 ± 0.13.

Turning to F43I, the abundance fitness is -0.084 ± 0.17.

As for T8I, the abundance fitness was -0.361 ± 0.15.

Turning to T8D, the abundance fitness worked out at 0.232 ± 0.1.

Regarding T8N, the abundance fitness stood at 0.221 ± 0.13.

For T8Y, the abundance fitness was found to be 0.119 ± 0.13.

For the variant T8G, the abundance fitness turned out to be 0.153 ± 0.064.

Consider T8W, for which the abundance fitness was -0.068 ± 0.069.

With T8K, the abundance fitness was 0.255 ± 0.066.

As to Q13M, the abundance fitness is -0.223 ± 0.1.

In the case of L49V, the abundance fitness was -0.075 ± 0.086.

As to Q18C, the abundance fitness was -0.087 ± 0.1.

In the case of P25D, the abundance fitness stood at 0.323 ± 0.075.

Turning to P25K, the abundance fitness is -0.003 ± 0.092.

For P25Y, the abundance fitness is -0.414 ± 0.27.

For P25W, the abundance fitness was -0.807 ± 0.17.

In the case of Y50V, the abundance fitness came out at 0.072 ± 0.086.

Regarding Y50Q, the abundance fitness is -0.256 ± 0.069.

On to Y50I, for which the abundance fitness is -0.194 ± 0.18.

For the variant Y50W, the abundance fitness was -0.161 ± 0.076.

Regarding Y50M, the abundance fitness is 0.077 ± 0.093.

With A31G, the abundance fitness turned out to be 0.019 ± 0.08.

Regarding A31N, the abundance fitness was determined as 0.086 ± 0.12.

In the case of A31T, the abundance fitness was -0.099 ± 0.095.

Consider K5T, for which the abundance fitness came to 0.104 ± 0.13.

As for K5N, the abundance fitness turned out to be 0.269 ± 0.16.

In the case of K5P, the abundance fitness is -0.267 ± 0.16.

For A55T, the abundance fitness is -0.013 ± 0.11.

On to A55Y, for which the abundance fitness was 0.081 ± 0.073.

With A55F, the abundance fitness came to 0.12 ± 0.081.

Turning to A55G, the abundance fitness is -0.079 ± 0.084.

Turning to A55P, the abundance fitness is -0.414 ± 0.22.

A55C: the abundance fitness is -0.108 ± 0.1.

Regarding L35A, the abundance fitness is 0.102 ± 0.072.

For L35V, the abundance fitness came out at 0.053 ± 0.064.

Consider L35R, for which the abundance fitness was -0.187 ± 0.074.

For the variant L35D, the abundance fitness is 0.202 ± 0.087.

As for L35H, the abundance fitness was -0.015 ± 0.089.

Regarding T29H, the abundance fitness is -0.041 ± 0.09.

Consider T29R, for which the abundance fitness is -0.261 ± 0.057.

T29D: the abundance fitness stood at 0.216 ± 0.14.

With R21G, the abundance fitness is -0.251 ± 0.058.

As for R21S, the abundance fitness was -0.02 ± 0.066.

For the variant L37Y, the abundance fitness was -0.38 ± 0.17.

Turning to L37E, the abundance fitness is -0.407 ± 0.068.

For the variant L37W, the abundance fitness was -0.731 ± 0.17.

As to V15D, the abundance fitness was -0.115 ± 0.11.

For V15Y, the abundance fitness was -0.499 ± 0.22.

In the case of V15E, the abundance fitness was determined as 0.272 ± 0.13.

Turning to V15F, the abundance fitness is -0.38 ± 0.21.

Consider I10V, for which the abundance fitness was -0.187 ± 0.057.

With I10S, the abundance fitness is -0.505 ± 0.08.

Consider W44M, for which the abundance fitness was -0.034 ± 0.13.

For the variant W44Q, the abundance fitness amounted to 0.096 ± 0.13.

On to R40M, for which the abundance fitness worked out at 0.063 ± 0.059.

R40Q: the abundance fitness was -0.091 ± 0.11.

With C33H, the abundance fitness is -0.709 ± 0.12.

For the variant G34W, the abundance fitness is -0.799 ± 0.14.

Take G34L: the abundance fitness was -0.165 ± 0.064.

With G34I, the abundance fitness is -0.352 ± 0.2.

Regarding G34Y, the abundance fitness is -0.331 ± 0.13.

T2G: the abundance fitness is -0.899 ± 0.13.

In the case of T2Y, the abundance fitness is -0.31 ± 0.27.

With T2Q, the abundance fitness was -0.339 ± 0.08.

In the case of T2P, the abundance fitness was -0.66 ± 0.08.

T2N: the abundance fitness came to 0.177 ± 0.11.

Consider E19D, for which the abundance fitness is -0.374 ± 0.14.

Consider E19W, for which the abundance fitness was -0.624 ± 0.19.

Take E19L: the abundance fitness was -0.237 ± 0.064.

Consider A14C, for which the abundance fitness was -0.139 ± 0.18.

A14F: the abundance fitness came out at 0.188 ± 0.14.

Consider A14G, for which the abundance fitness is -0.254 ± 0.089.

For S9R, the abundance fitness is -0.34 ± 0.083.

Consider S9Q, for which the abundance fitness was -0.079 ± 0.12.

Turning to C51R, the abundance fitness is -0.969 ± 0.095.

Consider C51D, for which the abundance fitness is -0.593 ± 0.27.

In the case of R56E, the abundance fitness was determined as 0.263 ± 0.16.

Regarding D32E, the abundance fitness was -0.171 ± 0.083.

With D32A, the abundance fitness was -0.361 ± 0.078.

As to D32M, the abundance fitness was -0.022 ± 0.095.

As for D32P, the abundance fitness was -0.824 ± 0.17.

For the variant Y22L, the abundance fitness was -0.349 ± 0.087.

Consider Y22V, for which the abundance fitness was -0.321 ± 0.066.

For the variant Y22A, the abundance fitness is -0.269 ± 0.09.

With N36C, the abundance fitness was -0.116 ± 0.083.

In the case of N36A, the abundance fitness is -0.104 ± 0.06.

As to N36L, the abundance fitness is -0.145 ± 0.069.

E52M: the abundance fitness was -0.152 ± 0.08.

Take E52K: the abundance fitness was -0.226 ± 0.095.

Regarding G41Q, the abundance fitness was -0.076 ± 0.086.

Turning to G41M, the abundance fitness was -0.386 ± 0.09.

Regarding G41R, the abundance fitness was -0.216 ± 0.067.

As for G41A, the abundance fitness is -0.139 ± 0.058.

As to G41I, the abundance fitness is -0.673 ± 0.11.

In the case of G41D, the abundance fitness was -0.088 ± 0.15.

As for G41F, the abundance fitness was -0.259 ± 0.18.

For the variant K53E, the abundance fitness amounted to 0.235 ± 0.094.

In the case of K53L, the abundance fitness is -0.135 ± 0.079.

Regarding K53Q, the abundance fitness is 0.028 ± 0.075.

As to H42W, the abundance fitness is -0.233 ± 0.064.

C3L: the abundance fitness is -0.978 ± 0.16.

Turning to C3R, the abundance fitness is -0.847 ± 0.059.

Consider R16T, for which the abundance fitness amounted to 0.137 ± 0.11.

For R16W, the abundance fitness was determined as 0.298 ± 0.12.

As to R16F, the abundance fitness was 0.215 ± 0.11.

In the case of R16H, the abundance fitness is 0.004 ± 0.17.

As to A11D, the abundance fitness is 0.321 ± 0.069.

As for G26M, the abundance fitness amounted to 0.037 ± 0.092.

Regarding G26V, the abundance fitness was 0.101 ± 0.071.

With C27L, the abundance fitness is -0.535 ± 0.062.

In the case of C27R, the abundance fitness was -0.838 ± 0.12.

As to C27Q, the abundance fitness is -0.268 ± 0.075.

Regarding G46K, the abundance fitness amounted to 0.019 ± 0.12.

As for G46Q, the abundance fitness was -0.206 ± 0.11.

In the case of G46N, the abundance fitness came to 0.112 ± 0.13.

Turning to G46S, the abundance fitness was -0.066 ± 0.07.
